These results are taken from paper PMC6265350.

Series [1] concerns the target T1, MtrA Y102C (unphosphorylated) Y102C (UniProt P9WGM7).
T1 sequence: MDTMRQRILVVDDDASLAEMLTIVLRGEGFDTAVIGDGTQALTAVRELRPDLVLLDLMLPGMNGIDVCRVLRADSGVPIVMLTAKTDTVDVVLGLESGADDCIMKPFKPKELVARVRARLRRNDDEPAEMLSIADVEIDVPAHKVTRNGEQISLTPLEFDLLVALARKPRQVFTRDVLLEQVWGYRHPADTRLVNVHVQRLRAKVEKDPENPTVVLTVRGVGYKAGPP
In words: EMSA. Particulars: 50 mM Tris-HCl pH 7.5, 50 mM NaCl, 10 mM MgCl2, 10 mM CaCl2, […].

A further series addresses T2, MtrA Y102C~P Y102C (UniProt P9WGM7).
T2 sequence: T1 sequence
The experiment in a line: EMSA. To be noted: 50 mM Tris-HCl pH 7.5, 50 mM NaCl, 10 mM MgCl2, 10 mM CaCl2, […].

Take “CTGTGCAGAGTAGGTGATCGGCGGCCCGACCGCGAGGAGCCGCGCTGTGACTGGCGGGACGAAAGTTACAGATGAAGATATTTGCGTCCGGTGTCGGTGAGCACGCTGCGCAGGATGGTTTCGATGGTGTCGAACTCGGGCTGTCCGCTAATCAGCGGGGGAGCCACCTGGACGACGGGGTCCCCGCGGTCGTCGGTG (double strand) [PdacB1]”: the binding result (in series [1]; with MtrA Y102C~P Y102C) was “binds” throughout.
